Here are results for 1 protein from article PMC10903754, “o-Vanillin binds covalently to MAL/TIRAP Lys-210 but independently inhibits TLR2” (Journal of Enzyme Inhibition and Medicinal Chemistry, 2024).

The series deals with the molecule itself. The series can be described thus: turbidity assay; MAL^TIR ~87.5-103 uM in 10 mM HEPES pH 7.5, 150 mM NaCl, 30 °C; filament formation followed by absorbance at 500 nm over time; with or without o-vanillin and analogues.

B1: TIR domain of human MAL/TIRAP (MAL^TIR), residues 79-221 (domain or fragment, UniProt P58753 79-221, looked up)
chain: SSRWSKDYDVCVCHSEEDLVAAQDLVSYLEGSTASLRCFLQLRDATPGGAIVSELCQALSSSHCRVLLITPGFLQDPWCKYQMLQALTEAPGAEGCTIPLLSGLSRAAYPPELRFMYYVDGRGPDGGFRQVKEAVMRYLQTLS
notes: MAL (MyD88 adaptor-like protein; TIRAP), human, TIR domain, residues 79-221; construct in the vector pMCSG7; For the NMR work the same construct was 13C-15N labelled and kept in low-salt buffer (10 mM HEPES pH 7.5, 10 mM NaCl); also called WT MAL^TIR; MyD88 adaptor-like protein TIR domain; source: E. coli BL21 (DE3), purified (Ni IMAC, TEV cleavage, SEC Superdex 75)
With B1, the binding result is given as “binds”.
